From publication PMC9337993

Legend:
[1] = target: Cys95Ala SynZur (Synechococcus sp. WH8102); test: native MS; native (near-native) ESI-MS, deconvoluted; WT after EDTA treatment (Zn1SynZur), Cys95Ala as purified
[2] = target: Cys95Ala SynZur (Synechococcus sp. WH8102); test: SEC; analytical SEC, Superdex 200 10/300, 0.5 ml/min; Zn2SynZur 40 uM, Cys95Ala SynZur 30 uM, in 20 mM Tris-HCl pH 8, 300 mM NaCl; methods give 50 mM Tris pH 8.0, 100 mM NaCl
[3] = target: T1, Cys95Ala SynZur C95A (Synechococcus sp. WH8102) (UniProt Q7U3N0); test: EMSA; settings: EMSA: 10 mM Tris pH 8, 50 mM KCl, 2 mM MgCl2, 5% glycerol, 0.05 mg/ml BSA, 1 mM DTT, 3 mM spermidine, 5 ng DNA in 10 ul, room temperature 30 min, gel at 4 C …
T1 sequence: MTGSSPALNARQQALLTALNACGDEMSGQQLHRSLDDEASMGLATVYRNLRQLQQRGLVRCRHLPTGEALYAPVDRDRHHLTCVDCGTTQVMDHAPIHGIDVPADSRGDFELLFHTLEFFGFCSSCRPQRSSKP

[4] = target: SynZur (SYNW2401), zinc uptake regulator Zur from Synechococcus sp. WH8102 (Synechococcus sp. WH8102); test: dynamic light scattering; 20 uM protein in 50 mM Tris, 25 °C; hydrodynamic diameter compared with values calculated for monomers, dimers and tetramers
[5] = target: SynZur (SYNW2401), zinc uptake regulator Zur from Synechococcus sp. WH8102 (Synechococcus sp. WH8102); test: nondenaturing SDS-PAGE; 10% Tris-glycine gel, 50 mM Tris pH 7.3, 50 mM MOPS, 0.0375% SDS, 4 °C, 100 V
[6] = target: SynZur (SYNW2401), zinc uptake regulator Zur from Synechococcus sp. WH8102 (Synechococcus sp. WH8102); test: crystal structure; X-ray, 2.1 Å, space group P65, four molecules (two dimers) in the asymmetric unit; 100 mM magnesium acetate, 100 mM MES pH 6, 16% PEG 10000, 4 °C
[7] = target: SynZur (SYNW2401), zinc uptake regulator Zur from Synechococcus sp. WH8102 (Synechococcus sp. WH8102); test: native MS; native (near-native) ESI-MS, deconvoluted; WT after EDTA treatment (Zn1SynZur), Cys95Ala as purified

Substance Cys95Ala SynZur (natural protein) has a stoichiometry N [1] of 2 and a stoichiometry N [2] of 2.

For “GTTCCATCCACAGCCACAACGCTTGGCTGGGCCGCCTGCGCCGCGACTGAACAACCCGAGACAACGCCCAGGGCGACCGCCAGACCCTTGACCAAAAGCGCAGGACGCGCCATGACACTCGAATGAGAATGATTATCATTTTTACAGTTCAACGGGTTGGCGCAACCCAATCGCGACCGCATGATGAAGTGAACCCACCGCAGCTGTGACAGAACCGCATTCGTCCATCAAGGGGCATCTAGCAGCCAGGAATCTC (double strand) [PznuA promoter (znuC-znuA intergenic fragment)]”, the binding [3] was “no binding”.

“SynZur (SYNW2401), zinc uptake regulator Zur from Synechococcus sp. WH8102 (natural protein)” was tested, and the stoichiometry N [4] was 2, the stoichiometry N [5] was 2 and the stoichiometry N [6] was 2. The stoichiometry N [7] was 2.
